Data: the DeepSol protein solubility set

Test: soluble on expression in E. coli; label from the status in PepcDB or PDB records

Sequence | soluble on expression in E. coli
MGSDKIHHHHHHMRILYYDCFCGISGDMNLAALVDLGVPKKYLIDELLKLNLGSEYEIKIEKGQKLGITGTRVDVILKDEHHNKHELEEVLHNHEHKHNHHEIKNDEPAHSHEHHHRSLRDIEEIINSSTLNDKVKKLSLNIFMKVAEAEAKVHGRELYEVHFHEVGAVDSIVDIVGAAICIDYLKVDKILASRVQVGGGFVRCAHGIMPVPAPATVEILKNIPINTGIVQFETTTPTGAAILAANVKEFTQKLDFIIKKTAYGIGHRDLEIPNVLRVYLGEEESFQDIENQYILETNIDDMNPEIYGYVEEKLFKVGALDVFKTPICMKKGRPGIKLSVLTNEKSEREVLDVIFEETTSIGVRRYKVEKIMLKREFSKVKTEFGDITVKKAYYKGELVKYKPEYEECKDIAREKNVSIHKVYKAVYKQDLK | not soluble
GPGSMYSYNNIIEKNEPCKKDVIENLQLSLSPTGAVRQFRVDERVDVVVVEGFLSNDECDQLIAACEKVGYTFWRQKDPNAEGEEAGCCGEAEARAFRVVDTIEANFPTLSQVLSSRIEKVVKLDPKTFSPSMEGAEELFARDLEGTWVPQQLAQNLLFARYGAGGHFSPHIDGSTIVDINTRSLYTLLIYLNDCEAGGETVLFDGEQAEVLKRDAESGKYIGRRENRIGAVKPTKGTAAFFYYDVLHEGSPVGEGHSKYIIRGDFLYRRNPPILTAENDMKAFELYEKARVAESNGDVFAACEMFQRVRKLSKGVAELYQL | soluble
MAHHHHHHMTVGAAALCEYYGYLPRLVRHTGLLPSTRTSVTSSMAATVLQSSLYEADPSPPVRSGEFELPSTYSLHKPLVYDIAALPPKPVSSLRLVIISDTHERHREMSVPNGDVLVHCGDIQEGLNFVRDVKAMLIDFSAWFTDSALHPHPVKLIIAGNHDKAIAAMSTEDVRRLFAPAVYLCEDSVVVEPAGVRFYGSPRSISNSRWSPNTAFQGKKAWKRFVFASARQDDEAGAVSTASRCSSEQPLRSRLEGATPGGPVDVLVVHQSPDIPRAHHSVSEQPICAYAQQVAPRRVLLCGHLHGAHGMHRLPVPEHVRKSFRIATRGGGGQPEGVVRMDEIPHLPCINAAMMTGRFGQNVLLPPSVVDLEL | not soluble
MGSDKIHHHHHHMPFVFACLSIKIPRKGTVMAEPLATTPIRYSFGADEHLFAEVSESMSLEAFFKGMAVTRAVERMALDGVLDVCLANASFQVRFDPDRIAPEALLEAVRGAEAQAVAERSLQTRIIEIPVLYNDPWTHETLMRFRDRHQDPTSTDLEYAARINGLADVEAFIAAHSGAPWFVSMVGFVAGLPFMFQMVERERQLQVPKYLRPRTDTPKLTLGHGGCFGCIYSVRGAGGYQMFGVTPAPIYDPQQTLNYLKEHMVFFRPGDIVQFKPIDRRTYDQAVAEVEDGCFDLRIRPVAFSLDAFLADPVGYPKSLQEVLA | not soluble
MGSDKIHHHHHHMNSLSFDFSDDFRPLAAKMRPRCLADYIGQSHLLGKDKPLRRAIEAGYAHSMILWGPPGTGKTTLAEIIAQHFDAEVERLSAVTSGVKEIREAIEQAKYNRQAGRKTLLFVDEVHRFNKSQQDAFLPYIEDGTVIFIGATTENPSFELNNALLSRARIYLLKPLQADEIEQILQNALQDKQNGLGQEHFILADEVLKLLADYVNGDARYALNCLALMADMAESSPQGKVLNQALLIAVLGERNARFDKGGDHYYDLISALHKSIRGSAVDAALYWYARILTAGGDPLYVARRLLAIASEDIGNADPRAMQIAISAWDCYSRVGAYEGERAIAQAVIYLAVAPKSNAVYQAFNQAKQLAKQAKDYDVPLHLRNAPTALMKSLAYGEEYRYAHNEANAYAAGENYFPEQLQDTQFYFPTERGMEKQIKEKLAWLKMQDHASEQQRYKR | not soluble
MEKFRVIGSTQPLQGEVTISGAKNAALPILFASILAEEPVEVANVPHLRDIDTTMELLERLGAKVERNGSVHVDAGPINQYCAPYDLVKTMRASIWALGPLVARFGQGQVSLPGGCAIGARPVDLHIHGLEQLGATITLEDGYVKAHVDGRLQGAHIVMDKVSVGATITIMCAATLAEGTTVLDNAAREPEIVDTAMFLNKLGAKISGAGTDSITIEGVERLGGGKHAVVPDRIETGTFLVAAAVSRGKIVCRNTHAHLLEAVLAKLEEAGAEIECGEDWISLDMTGRELKAVTVRTAPHPGFPTDMQAQFTLLNMMAKGGGVITETIFENRFMHVPELKRMGAKAEIEGNTVICGDVDRLSGAQVMATDLRASASLVIAGCIAKGETIVDRIYHIDRGYERIEDKLSALGANIERFRD | not soluble
TQYKYAWIINGLTKSTGETYIPTAADDGFNIRLEVTGQDAYGQVTEMQYVVYAFSKVETIFSDMYAFAALKTDGSVVTWGYSDYGGDSSSVAGQLTSGVKVIDSTSSAFAAIKEDGSVVTWGDSPYGGDSSSVAGKLTSGVKVIYSNSSAFAAVKQDGSVVTWGSYGGDSSSVAGQLTSGVKVIYSTDSEFGAFAAVKEDGSVVTWGNSPYGGDSSSVAGQLTSGVKVIYSTNNAFAAVKEDGSVVTWGDSGAGGDSSSVAGQLTSGVKVIYSTNNAFAAVKEDGSVVTWGGYGGDSSSVAGQLTSGVKVIYSTNNAFAAVKEDGSVVTWGDSGNGGDSSSVAGQLTSGVKVIDSTYSAFAAVKEDGSVVAWGNSGYGGDSSSVAGQLTSGVKVIDSTTSAFAVVKEDGSVVTWGGSFYGGDSSSVAGQLTSGVKVIYSTSSAFAVVKEDGSVVTWGGSFYGGDSSSVADKLAPNLFLIETSIN | not soluble
MQEKIYQVAVGLIPGVGAATTKTLISYCGCAEQIFKTPKGKLKNIPGIGAVTVDNIYSASVLHEAESIVERAQKLDTQLLFYTDPDYPNRLKQIPDAPTLLYYKGSSALNPPKSIAIVGTRKATEYGRSVVRKLLEEIASYKPLVVSGLAYGIDIQAHRDALELGLETIGVMANGTNIIYPSVHKNTALKMLEQGGLLSEYTFDSIAEPMRFPARNRIIAGMTDATIVIEATQSGGALITAEIADSYDREVLAVPGRITDMASEGCNNLIKQNKAHALTSAADLIELLNWDITPSQQAHKHIILADLEEDELMIYAVLTDNEGIHIDELSWKSQLSMQKISSVLLEMEFKGIVKALPGKKFSLR | not soluble
MKKRLLLSTFLASTLILTGCASDQSDNEDHHTSTGIHAPKSAKKLETKDIFNSDKKNSDISDAEMKQAIEKYLSVNSDILDNKYIMQHKLDKQIDSQTKVTEKQAETLSHLSNLAVKNDLHFKKFVTENNIPKEYKKPVELMMNYFKALNSTIANVDEDIEKLSYQPQNKINVVDVPTKYAGDVNKKQQDKIKDFLKSKGIKSDVIDK | not soluble
MGSSHHHHHHGMASMTGGQQMGRDLYDDDDKDPSSRSMAKLTKPKTEGILHKGQSLYEYLDARVLTSKPFGAAGDATTDDTEVIAASLNSQKAVTISDGVFSSSGINSNYCNLDGRGSGVLSHRSSTGNYLVFNNPRTGRLSNITVESNKATDTTQGQQVSLAGGSDVTVSDVNFSNVKGTGFSLIAYPNDAPPDGLMIKGIRGSYSGYATNKAAGCVLADSSVNSLIDNVIAKNYPQFGAVELKGTASYNIVSNVIGADCQHVTYNGTEGPIAPSNNLIKGVMANNPKYAAVVAGKGSTNLISDVLVDYSTSDARQAHGVTVEGSDNVINNVLMSGCDGTNSLGQRQTATIARFIGTANNNYASVFPSYSATGVITFESGSTRNFVEVKHPGRRNDLLSSASTIDGAATIDGTSNSNVVHAPALGQYIGSMSGRFEWRIKSMSLPSGVLTSADKYRMLGDGAVSLAVGGGTSSQVRLFTSDGTSRTVSLTNGNVRLSTSSTGYLQLGADAMTPDSTGTYALGSASRAWSGGFTQAAFTVTS | soluble
MKTIYLHHPITTDEWTDVKKVMALGFFDGVHLGHQAVIKQAKQIAEEKGLQTAVLTFDPHPSVVLSNIRKQVKYLTPLEDKAEKMANLGVDIMYVVRFTTQFSELSPRAFVDNYLVALNVKHVVAGFDYSYGKKGEGKMTELENYANGRFEVTIVDKQTAASDKISSTNIRRAITEGELEEANQLLGYP | not soluble
MGHHHHHHMAGGGKHTPTPKAIIHQKFGAKASYTVEEVHDSSQSGCPGLAIPQKGPCLYRCHLQLPEFSVVSNVFKKKKDSEQSAAELALDKLGIRPQNDDLTVDEARDEIVGRIKYIFSDEFLSAEHPLGAHLRAALRRDGERCGSVPVSVIATVDAKINSRCKIINPSVESDPFLAISYVMKAAAKLADYIVASPHGLRRKNAYPSEIVEALATHVSDSLHSREVAAVYIPCIDEEVVELDTLYISSNRHYLDSIAERLGLKDGNQVMISRMFGKASCGSECRLYSEIPKKYLDNSSDASGTSNEDSSHIVKSRNARASYICGQDIHGDAILASVGYRWKSDDLDYDDVTVNSFYRICCGMSPNGIYKISRQAVIAAQLPFAFTTKSNWRGPLPREILGLFCHQHRLAEPILSSSTAPVKSLSDIFRSHKKLKVSGVDDANENLSRQKEDTPGLGHGFRCEVKIFTKSQDLVLECSPRKFYEKENDAIQNASLKALLWFSKFFADLDVDGEQSCDTDDDQDTKSSSPNVFAAPPILQKEHSSESKNTNVLSAEKRVQSITNGSVVSICYSLSLAVDPEYSSDGESPREDNESNEEMESEYSANCESSVEPIESNEEIEFEVGTGSMNPHIESEVTQMTVGEYASFKMTPPDAAEALILAVGSDTVRIRSLLSERPCLNYNILLLGVKGPSEERMEAAFFKPPLSKQRVEYALKHIRESSASTLVDFGCGSGSLLDSLLDYPTSLQTIIGVDISPKGLARAAKMLHVKLNKEACNVKSATLYDGSILEFDSRLHDVDIGTCLEVIEHMEEDQACEFGEKVLSLFHPKLLIVSTPNYEFNTILQRSTPETQEENNSEPQLPKFRNHDHKFEWTREQFNQWASKLGKRHNYSVEFSGVGGSGEVEPGFASQIAIFRREASSVENVAESSMQPYKVIWEWKKEDVEKKKTDL | soluble
MSLTERLSPVEIMGALVAFPTVSRDTNLPLVDWVETYLAGHGITAHRWVDPEQPHKAALFAHVGPWEEGAVVLSGHTDVVPIDGQPWDSDPFTVVERDGKYFGRGTCDMKGFDALAIWALVEGRYRDLKRPLQLALSFDEEVGCTGAPPMIVEMQNHLPKGSAVIVGEPSMMQAVTGHKGGFGYDTRVLGFEVHSSIMHTGVNAIMAAAPLIDWANHRNAENRAATPSALAAMFDPPWTTCHVGMISGGTAHNITAKECRFAMDFRIVPGEAKERWRDAYFAVAREVEAQMQAVHPEARIDLSEQFHVPPLVPEQEGEAEMLVRALTGDNAGHVVSYGTEAGQFQEAGYSAVICGPGDIAQAHQPNEFITVAQFDAGHGFMARLLDRLSEGHHHHHH | soluble
MNHLLSMEHLSTDQIYKLIQKASQFKSGERQLPNFEGKYVANLFFENSTRTKCSFEMAELKLGLKTISFETSTSSVSKGESLYDTCKTLESIGCDLLVIRHPFNNYYEKLANINIPIANAGDGSGQHPTQSLLDLMTIYEEYGYFEGLNVLICGDIKNSRVARSNYHSLKALGANVMFNSPNAWIDDSLEAPYVNIDDVIETVDIVMLLRIQHERHGLAEETRFAADDYHQKHGLNEVRYNKLQEHAIVMHPAPVNRGVEIQSDLVEASKSRIFKQMENGVYLRMAVIDELLK | not soluble
MSAFDIVLREGTVVDGTGADPFVADVAISGGRIAAIGPNLSRGTTEINASGQIVTPGFVDLHTHYDGQVTWDNRLAPSSYHGVTTAVIGNCGVGFAPCRRDAASRDAMVRLMEGVEDIPHPVLTEGLPWTWETFPDYLDFLASRTYDIDVAAYVPHAPLRVYVMGQRGADREPATQTDIAEMCRLLEQALDRGALGIATSRSLFHRSSDGTAIPTYQAAQAELMAFAEVLRAKGKGVFQIVEDIHVPGASLDNMRELARTSGRPLTFSIGTGNTGPYGYPRLLDELAAANAEGLVMKGQLMPRGIGMILGFELTLNPFYTTSTFARLAPLPLAERLEQLRRPEIRAAILSEPMDPDPALVLGRAVRDFDHMFLLGDDPDYEQPPERSIAGRAREAGITPEELAYDVMTEGESGGLLYLAMANYADGSLDAVGDILSHPDVVLGLGDGGAHVGTICDASYSTFALCHWARDRQRGRKTVADMVHRMTQATARVIGLEDRGELAVGKRADINVIDLAQLALRPPQVCHDLPAGGRRLIQRATGYSLTMLAGEIVLRDDEPTGLLPGRLIRASLEHHHHHH | not soluble
